Test results reported in the RNAGym collection of RNA variant scans (doi:10.1073/pnas.2313332121).
This sample holds only a part of the variants without activity.

B1: TPR 5TU (parent)
chain: GGAUCUUCUCGAUCUAACAAAAAAGACAAAUCUGCCACAAAGCUUGAGAGCAUCUUCGGAUGCAGAGGCGGCAGCCUUCGGUGGCGCGAUAGCGCCAACGUUCUCAACUAUGACACGCAAAACGCGUGCUCCGUUGAAUGGAGUUUAUCAUG

Variants of: B1
Experiment: polymerase ribozyme fitness, log enrichment relative to wild type (log ratio); higher = more active; in vitro selection for triplet polymerase activity
How it was run: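 PCR was used to build mutant libraries for each subunit of a heterodimeric triplet polymerase ribozyme, which were then transcribed. A single in vitro selection round, in triplicate, used a frozen incubation at −7 °C and recovered extended constructs by gel excision, streptavidin beads and RT-PCR. Fitness is the logarithm of genotype enrichment relative to wild-type enrichment, averaged over replicates with inverse-variance weights. The logarithm is base 2, and after Illumina sequencing only genotypes with ≥10 input reads and ≥1 read per output were kept.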

| Variant | polymerase ribozyme fitness (log ratio) |
| --- | --- |
| U6C A89G C96U U135C G140U | ≤ -4.2 |
| A20G A52U C57A G62U C95A G133C A150U | -1.8 |
| C38U G84U | -2.42 |
| A30U U55A G74A C79U C87A C116A | ≤ -4.2 |
| U56G C85G | -2.54 |
| U15G A110G | -3.59 |
| G25C A52C U56A C85U G124C | ≤ -4.2 |
| A73G G86A | -2.14 |
| G81A A89C | -0.165 |
| A17U A40C C43G A52G G92C G128C | ≤ -4.2 |
| G81U C95U | -1.63 |
| A49C G67A G92U A138C | ≤ -4.2 |
| C72U U134A | -2.32 |
| A21U C95A U146G | -0.389 |
| U13A A16C A91G | -2.83 |
| A47C C96U A107U | -3.57 |
| A26U G92C | -3.52 |
| C57U C105A | -0.73 |
| A52U C57A U135C | -3.88 |
| C5G | -0.157 |
| A52G U102G G124A | -3.08 |

| Variant | polymerase ribozyme fitness (log ratio) |
| --- | --- |
| U9A A26G A66C A122U A137U G143C U145A | ≤ -4.2 |
| U15A A49U A73G U82G A107U | ≤ -4.2 |
| A20G A26U A39C G86C A150C | ≤ -4.2 |
| U31G U33A C75G A91G G140A G152A | -3.96 |
| A73G C95U A122U C125U U127G A138G | ≤ -4.2 |
| C14U C76A C85U | -2.67 |
| C76A C96A G128C | ≤ -4.2 |
| A19C C57U G94U | -0.554 |
| A21U C85U C131U U145G U151A | ≤ -4.2 |
| A3C A22U C85G | -2.18 |
| C85A C87U A119U | ≤ -4.2 |
| C85U U139G | -0.28 |
| A41C C63G G70C C85U A97C U144A | ≤ -4.2 |
| A23C C87U G112U | -3.99 |
| A24U G42A C108U | 1.52 |
| A3G C85U | -1.05 |
| A22U A37G A49C G62U C75G C76A G81U C85G G128C | ≤ -4.2 |
| A30U C54A A97U C116U G117U | ≤ -4.2 |
| U6A C57G A64G C76U C87A | ≤ -4.2 |
| U15G U82C G94A | -1.01 |
| C18U U55A C93A G128A G136A | ≤ -4.2 |

| Variant | polymerase ribozyme fitness (log ratio) |
| --- | --- |
| A26U A147U | -0.0486 |
| G71A C87G C93A C95G | ≤ -4.2 |
| U4G A40G C72G C87U U104G C118U A122G | ≤ -4.2 |
| A21G C27G U33C G58C C96U A97U A106G G141U | ≤ -4.2 |
| A22G A41C G62U C93A C95U C105A G112U C123G U134C G140A G141U | ≤ -4.2 |
| A41C U148C | -3.07 |
| C8G A12C A23G A52U C57U C93A C95G A110U | ≤ -4.2 |
| A113G U148A | -4.05 |
| G50A G83C U146G | -2.55 |
| C54U G84A C105A | -0.565 |
| U61A A91C G100C A142U | ≤ -4.2 |
| A21U C38A | 0.268 |
| A29U G81U G92C C116G G140A U148C | ≤ -4.2 |
| A24G G42U C72A A91U G92A U102G G136U | ≤ -4.2 |
| G42A C75G C87A | ≤ -4.2 |
| A47C G65C G88A C103A | ≤ -4.2 |
| A28C C87G G117C A137U | ≤ -4.2 |
| C63U | -0.0732 |
| U56A G58C C93A G124A | -2.36 |
| C87G A106G | -4 |
| G42A A142C U148G | ≤ -4.2 |

| Variant | polymerase ribozyme fitness (log ratio) |
| --- | --- |
| U55G G84U A98C U151C | ≤ -4.2 |
| A41U G83C G126A | -2.3 |
| A19U G58A G94U C116A A119C | -0.758 |
| C5A A16U A52G A106G | -3.09 |
| A91U U109G G141U | ≤ -4.2 |
| C32U A52U U90C G128C | ≤ -4.2 |
| C18U C57G U61A C87U A89U C116U C118G A122G U139A | ≤ -4.2 |
| G59A A64C G88C | ≤ -4.2 |
| A19G A39U U55G A121C | -2.95 |
| C5A | 0.273 |
| A110G G136A | -2.94 |
| A19C C35G U53A C57A G92A U101C | -4.13 |
| A60G U102A U109G A115C | -3.77 |
| A12U A41C G83C C118G G133U | ≤ -4.2 |
| U45A G59U G74U A121G G141A | ≤ -4.2 |
| C14A U135A A142C | -3.9 |
| G46C C105G | 1.29 |
| C85U G88A A98U | -3.79 |
| A91G G94A | -3.47 |
| U61G G94A A106C C116A G133C U146A | ≤ -4.2 |
